Results on 1 substance are retold here after doi:10.1101/2025.10.27.684804.

The target in the assay is peptide containing the APP12 polyproline motif and a N-terminal TAMRA label. Kind of assay: fluorescence polarisation. In general terms: In fluorescence polarisation assays a small probe gives low polarisation when free and higher when bound to something large.

A value given as a limit tells only on which side of the number the result lay.

A word on the Kd: it is the constant that tells how readily two partners part at equilibrium. “naive fusion of bmTyr and Fyn-SH3 linked by a short glycine/serine linker (from UniProt P06241 84-141) (enzyme)”: the Kd is less than 2 µM.
